Laboratory results as given in patent US20210130470A1 (MacroGenics, published 2021).
Where a chain is given by its changes, count along the chain named. Blank lines part the entries; values can stand above or below the binder they belong to.

Key:
[1] = biological target: T1, hPD-1-His (human, UniProt Q15116 25-170, limits assumed); assay: competition ELISA: plate coated with shPD-1 and irrelevant antigen 1:1 (2 ug/ml each); blocked ligand biotin-labeled PD-L1 6 ug/ml, streptavidin-HRP, RLU
T1 construct: also called His-tagged soluble human PD-1; shPD-1
Method: (§1) A series of ELISA assays were conducted to evaluate the ability of bispecific molecules of the invention to block ligand binding to PD-1 and […], alone and in combination. […] Plates were coated with a 1:1 mix of His-tagged soluble human PD-1 (shPD-1) and a His-tagged irrelevant antigen (irrAg) (2 μg/ml each), or a 1:1 mix of shPD-1 and a His-tagged soluble human CTLA-4 (shCTLA-4) (2 μg/ml each).

[2] = biological target: T2, PD-1 expressed on the cell surface (human, UniProt Q15116 21-288); assay: cell-based competition (FACS): blocked ligand PD-L1-PE binding to NSO-PD-1 cells, MFI
T2 construct: also called NSO cells expressing PD-1; NSO-PD-1 cells

[3] = biological target: T3, His-tagged soluble human CTLA-4 (human, UniProt P16410 36-161); assay: competition ELISA: plate coated with shCTLA-4 and shPD-1 1:1 (2 ug/ml each); blocked ligand biotin-labeled B7-1 0.2 ug/ml, streptavidin-HRP, RLU
T3 construct: also called shCTLA-4
T3 sequence: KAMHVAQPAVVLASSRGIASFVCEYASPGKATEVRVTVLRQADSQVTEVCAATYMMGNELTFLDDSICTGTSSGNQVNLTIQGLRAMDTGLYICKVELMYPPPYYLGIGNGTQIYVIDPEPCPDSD
Method: (§2) Plates were coated with a 1:1 mix of shCTLA-4 and irrAg (2 μg/ml each), a 1:1 mix of shCTLA-4 shPD-1 (2 μg/ml each), or a 1:4 mix of shCTLA-4 (0.8 μg/ml) and shPD-1 (3.2 μg/ml).

[4] = biological target: T4, His-tagged soluble cynomolgus monkey CTLA-4 (cynomolgus monkey); assay: BIACORE, His-tagged soluble cyno CTLA-4 captured on anti-PentaHis, binder passed over at 12.5-200 nM; affinity by 1:1 Langmuir binding model
T4 construct: extracellular domain; also called Cyno CTLA-4
Method: (§3) Briefly, His-tagged soluble CTLA-4 (an extracellular portion of human or cynomolgus monkey CTLA-4 fused to a histidine-containing peptide) was captured on immobilized anti-PentaHis and then different concentrations (12.5-200 nM) of the CTLA-4 binding molecules were passed over the immobilized CTLA-4 proteins. The kinetics of binding were determined via BIACORE® analysis (affinity by 1:1 Langmuir binding model (simultaneous ka/kd); or avidity by separate ka/kd 1:1 fit).

[5] = biological target: T3, His-tagged soluble human CTLA-4; assay: competition ELISA: plate coated with shCTLA-4 0.8 ug/ml and shPD-1 3.2 ug/ml (1:4); blocked ligand biotin-labeled B7-1 0.2 ug/ml, streptavidin-HRP, RLU
Method: as §2

[6] = biological target: T1, hPD-1-His; assay: competition ELISA: plate coated with shPD-1 and shCTLA-4 1:1 (2 ug/ml each); blocked ligand biotin-labeled PD-L1 6 ug/ml, streptavidin-HRP, RLU
Method: as §1

[7] = biological target: T2, PD-1 expressed on the cell surface; assay: cell-based competition (FACS): blocked ligand PD-L2-PE binding to NSO-PD-1 cells, MFI
[8] = biological target: T4, His-tagged soluble cynomolgus monkey …; assay: BIACORE, His-tagged soluble cyno CTLA-4 captured on anti-PentaHis, binder passed over at 12.5-200 nM; avidity by separate ka/kd 1:1 fit
Method: as §3

[9] = biological target: T1, hPD-1-His; assay: ELISA: shPD-1-his coated, detection goat anti-human Fc-gamma-HRP 1:10000, chemiluminescence RLU
Source text: (§4) FIGS. 8A-8D show the results of ELISA studies measuring the binding of serially diluted binding molecules to human CTLA-4 and human PD-1. […] Goat anti-human-Fc-HRP (1:10,000) was employed as the secondary detection molecule to detect binding. FIGS. 8C-8D show the results of a study on the effect of altering orientations and binding domains on binding. […] Goat anti-human-Fcγ-HRP was employed as the secondary detection molecule to detect binding using PICO chemiluminescent substrate.

[10] = biological target: T2, PD-1 expressed on the cell surface; assay: flow cytometry on NSO cells expressing PD-1 but not CTLA-4, MFI (APC)
[11] = biological target: T5, human CTLA-4 expressed on the cell surface (human, UniProt P16410 36-223); assay: cell-based competition: blocked ligand His-B7-1 10 ng/ml binding to CTLA-4 Jurkat cells, detected with anti-His antibody, GMFI-APC
T5 construct: also called huCTLA-4; CHO cells expressing human CTLA-4
T5 sequence: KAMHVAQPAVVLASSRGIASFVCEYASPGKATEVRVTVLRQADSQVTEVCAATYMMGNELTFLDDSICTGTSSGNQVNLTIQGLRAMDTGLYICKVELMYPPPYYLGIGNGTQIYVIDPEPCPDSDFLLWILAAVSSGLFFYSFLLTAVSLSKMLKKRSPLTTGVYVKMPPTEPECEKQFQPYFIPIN

[12] = biological target: T5, human CTLA-4 expressed on the cell …; assay: flow cytometry on CHO cells expressing human CTLA-4, anti-human Fc secondary antibody, GMFI
[13] = biological target: T6, cynomolgus monkey CTLA-4 expressed on CHO cells (cynomolgus monkey, UniProt G7PL88 36-223); assay: flow cytometry on CHO cells expressing cynomolgus monkey CTLA-4, anti-human Fc secondary antibody, GMFI
T6 construct: also called cynoCTLA-4
T6 sequence: T5 sequence with S14N, I18T, L106M

[14] = biological target: T5, human CTLA-4 expressed on the cell …; assay: cell-based competition: blocked ligand His-B7-2 116.8 ng/ml binding to CTLA-4 Jurkat cells, detected with anti-His antibody, GMFI-APC
[15] = biological target: T7, soluble hCTLA-4-Avi-His (human, UniProt P16410 36-161); assay: ELISA: shCTLA-4-Avi-His coated at 1 ug/mL, detection goat anti-human Fc-gamma-HRP 1:10000, chemiluminescence RLU
T7 construct: also called soluble human CTLA-4-Avi-His
T7 sequence: T3 sequence
Source text: as §4

- IC50 (read off the curve) [1]: ~1 nM
- IC50 (read off the curve) [2]: ~0.8 nM
- IC50 (read off the curve) [3]: ~10 nM
- Kd [4]: 260 nM
- IC50 (read off the curve) [5]: ~3 nM
- IC50 (read off the curve) [6]: ~1 nM
- IC50 (read off the curve) [7]: ~1 nM
B1: TRIDENT A (bispecific antibody, human IgG4 S228P, kappa)
chain 1: EIVLTQSPATLSLSPGERATLSCRASESVDNYGMSFMNWFQQKPGQPPKLLIHAASNQGSGVPSRFSGSGSGTDFTLTISSLEPEDFAVYFCQQSKEVPYTFGGGTKVEIKGGGSGGGGQVQLVQSGAEVKKPGASVKVSCKASGYSFTSYWMNWVRQAPGQGLEWIGVIHPSDSETWLDQKFKDRVTITVDKSTSTAYMELSSLRSEDTAVYYCAREHYGTSPFAYWGQGTLVTVSSGGCGGGEVAACEKEVAALEKEVAALEKEVAALEKESKYGPPCPPCPAPEFLGGPSVFLFPPKPKDTLYITREPEVTCVVVDVSQEDPEVQFNWYVDGVEVHNAKTKPREEQFNSTYRVVSVLTVLHQDWLNGKEYKCKVSNKGLPSSIEKTISKAKGQPREPQVYTLPPSQEEMTKNQVSLWCLVKGFYPSDIAVEWESNGQPENNYKTTPPVLDSDGSFFLYSRLTVDKSRWQEGNVFSCSVMHEALHNHYTQKSLSLSLG
chain 2: EIVLTQSPATLSLSPGERATLSCRASESVDNYGMSFMNWFQQKPGQPPKLLIHAASNQGSGVPSRFSGSGSGTDFTLTISSLEPEDFAVYFCQQSKEVPYTFGGGTKVEIKGGGSGGGGQVQLVQSGAEVKKPGASVKVSCKASGYSFTSYWMNWVRQAPGQGLEWIGVIHPSDSETWLDQKFKDRVTITVDKSTSTAYMELSSLRSEDTAVYYCAREHYGTSPFAYWGQGTLVTVSSGGCGGGKVAACKEKVAALKEKVAALKEKVAALKE
chain 3: QVQLVESGGGVVQPGRSLRLSCAASGFTFSSYTMHWVRQAPGKGLEWVTFISYDGSNKHYADSVKGRFTVSRDNSKNTLYLQMNSLRAEDTAIYYCARTGWLGPFDYWGQGTLVTVSSASTKGPSVFPLAPCSRSTSESTAALGCLVKDYFPEPVTVSWNSGALTSGVHTFPAVLQSSGLYSLSSVVTVPSSSLGTKTYTCNVDHKPSNTKVDKRVESKYGPPCPPCPAPEFLGGPSVFLFPPKPKDTLYITREPEVTCVVVDVSQEDPEVQFNWYVDGVEVHNAKTKPREEQFNSTYRVVSVLTVLHQDWLNGKEYKCKVSNKGLPSSIEKTISKAKGQPREPQVYTLPPSQEEMTKNQVSLSCAVKGFYPSDIAVEWESNGQPENNYKTTPPVLDSDGSFFLVSRLTVDKSRWQEGNVFSCSVMHEALHNRYTQKSLSLSLG
chain 4: not shown
notes: Four-chain trivalent molecule: two PD-1 sites (PD-1 mAb 6-ISQ, diabody type), one CTLA-4 site (CTLA-4 mAb 3, Fab type), knob/hole IgG4 (YTE)

- Kd [8]: 1.3 nM
B2: CTLA-4 mAb 1 (antibody, IgG1, V domains shown)
VH: QVQLVESGGGVVQPGRSLRLSCAASGFTFSSYTMHWVRQAPGKGLEWVTFISYDGNNKYYADSVKGRFTISRDNSKNTLYLQMNSLRAEDTAIYYCARTGWLGPFDYWGQGTLVTVSS
VL: not shown
notes: IgG1, natural antibody structure; also called ipilimumab replica

- EC50 (read off the curve) [9]: ~0.5 nM
- EC50 (read off the curve) [10]: ~1 nM
- IC50 (read off the curve) [1]: ~0.8 nM
- IC50 (read off the curve) [11]: ~4 nM
- IC50 (read off the curve) [2]: ~0.8 nM
- EC50 (read off the curve) [12]: ~2 nM
- EC50 (read off the curve) [13]: ~2 nM
- IC50 (read off the curve) [14]: ~5 nM
- IC50 (read off the curve) [7]: ~1 nM
- Kd [8]: 4.9 nM
B3: DART D (bispecific antibody, human IgG4 S228P)
chain 1: EIVLTQSPATLSLSPGERATLSCRASESVDNYGMSFMNWFQQKPGQPPKLLIHAASNQGSGVPSRFSGSGSGTDFTLTISSLEPEDFAVYFCQQSKEVPYTFGGGTKVEIKGGGSGGGGQVQLVESGGGVVQPGRSLRLSCAASGFTFSSYTMHWVRQAPGKGLEWVTFISYDGSNKHYADSVKGRFTVSRDNSKNTLYLQMNSLRAEDTAIYYCARTGWLGPFDYWGQGTLVTVSSGGCGGGEVAACEKEVAALEKEVAALEKEVAALEKESKYGPPCPPCPAPEFLGGPSVFLFPPKPKDTLYITREPEVTCVVVDVSQEDPEVQFNWYVDGVEVHNAKTKPREEQFNSTYRVVSVLTVLHQDWLNGKEYKCKVSNKGLPSSIEKTISKAKGQPREPQVYTLPPSQEEMTKNQVSLTCLVKGFYPSDIAVEWESNGQPENNYKTTPPVLDSDGSFFLYSRLTVDKSRWQEGNVFSCSVMHEALHNHYTQKSLSLSLG
chain 2: not shown
notes: Four-chain Fc diabody, PD-1 mAb 6-ISQ x CTLA-4 mAb 3, IgG4 (YTE), E/K-coils

- EC50 (read off the curve) [9]: ~0.5 nM
B4: DART B (bispecific antibody)
chain 1: not shown
chain 2: EIVLTQSPATLSLSPGERATLSCRASESVDNYGMSFMNWFQQKPGQPPKLLIHAASNQGSGVPSRFSGSGSGTDFTLTISSLEPEDFAVYFCQQSKEVPYTFGGGTKVEIKGGGSGGGGQVQLVESGGGVVQPGRSLRLSCAASGFTFSSYTMHWVRQAPGKGLEWVTFISYDGNNKYYADSVKGRFTISRDNSKNTLYLQMNSLRAEDTAIYYCARTGWLGPFDYWGQGTLVTVSSGGCGGGKVAACKEKVAALKEKVAALKEKVAALKE
notes: Four-chain Fc diabody, PD-1 mAb 6-ISQ x CTLA-4 mAb 1, IgG4 (YTE), E/K-coils; two sites for PD-1 and two for CTLA-4

- EC50 (read off the curve) [9]: ~0.5 nM
- EC50 (read off the curve) [15]: ~0.4 nM
B5: DART C (bispecific antibody)
chain 1: not shown
chain 2: B4 chain 2 with N175S, Y178H, I189V
notes: Four-chain Fc diabody, CTLA-4 mAb 3 x PD-1 mAb 6-ISQ, IgG4 Fc, E/K-coils
